T1: Siglec-5-Fc (R&D systems) (UniProt O15389 17-434, limits assumed)
T1 construct: Bought reagent; not shown: Fc part of the bought fusion; not described
T1 sequence (looked up): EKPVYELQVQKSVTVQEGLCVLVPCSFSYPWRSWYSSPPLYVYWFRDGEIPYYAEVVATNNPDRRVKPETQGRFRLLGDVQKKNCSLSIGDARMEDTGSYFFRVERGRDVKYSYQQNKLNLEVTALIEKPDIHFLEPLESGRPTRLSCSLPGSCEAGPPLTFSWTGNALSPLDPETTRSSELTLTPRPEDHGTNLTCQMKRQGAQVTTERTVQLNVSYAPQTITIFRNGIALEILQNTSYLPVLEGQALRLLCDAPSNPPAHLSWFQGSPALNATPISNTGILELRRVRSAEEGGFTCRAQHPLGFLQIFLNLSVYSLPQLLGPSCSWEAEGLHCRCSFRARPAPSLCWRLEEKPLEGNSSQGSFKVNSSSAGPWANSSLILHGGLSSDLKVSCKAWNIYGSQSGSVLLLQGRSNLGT

T2: Siglec-15-Fc (R&D systems) (UniProt Q6ZMC9 20-263, limits assumed)
T2 construct: Bought reagent; not shown: Fc part of the bought fusion; not described
T2 sequence (looked up): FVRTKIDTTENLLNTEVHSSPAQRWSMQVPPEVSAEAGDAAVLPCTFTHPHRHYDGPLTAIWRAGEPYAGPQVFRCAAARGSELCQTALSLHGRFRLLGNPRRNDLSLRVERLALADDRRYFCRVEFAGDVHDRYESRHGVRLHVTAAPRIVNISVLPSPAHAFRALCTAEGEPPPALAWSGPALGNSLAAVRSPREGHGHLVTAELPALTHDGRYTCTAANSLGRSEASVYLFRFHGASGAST


Legend:
[1] = molecular target: T1, Siglec-5-Fc (R&D systems); assay: ELISA, coated Siglec-5-Fc 1 µg/ml, single antibody concentration, Abs 450 nm, n=3
Description: (§1) Specificity towards Siglec-5, Siglec-7, Siglec-8, Siglec-15 and Siglec-9 was assayed in enzyme-linked immunosorbent assay (ELISA) using 96 well half-area ELISA plates (Corning). Siglec-5-Fc (R&D systems), Siglec-7-Fc (in-house production, Siglec-7-Fc protein used had the following amino acid sequence:
(§2) (SEQ ID NO: 59)) […] […] […] […] […] […] […] […] […] […] […] […], Siglec-8-Fc (R&D systems), Siglec-15- Fc (R&D systems) and Siglec-9-Fc (in-house production, SEQ ID NO: 11) were coated at 1 μg/ml in 50 mM carbonate-bicarbonate buffer pH 9.6 for 15-20 hours at 4° C.
(§3) Antigens were washed away (Tecan Hydrospeed) and plates were blocked with 5% skimmed milk in phosphate-buffered saline (PBS). After washing the plates, antibodies were added at 5 μg/ml (33 nM) in 0.5% milk PBS in triplicates. Plates with antibodies were incubated for 1 hour at room temperature. Plates were washed and bound antibodies were detected by horseradish peroxidase (HRP)-labeled polyclonal anti-rabbit IgG antibody (Biolegend) or anti-human Fab fragment for mAbA (Sigma Aldrich). 3,3′,5,5′-Tetramethylbenzidine (TMB; Sigma Aldrich) development was stopped by addition of sulfuric acid and absorbance was detected at 450 nm (Tecan, CM […] MONO 200).

[2] = molecular target: T2, Siglec-15-Fc (R&D systems); assay: ELISA, coated Siglec-15-Fc 1 µg/ml, single antibody concentration, Abs 450 nm, n=3
Description: as §1, §2, §3

[3] = molecular target: T3, Siglec-7-Fc (in-house production); assay: ELISA, coated Siglec-7-Fc 1 µg/ml, antibody at 5 µg/ml (33 nM), Abs 450 nm, n=3
T3 construct: The entry holds the Siglec-7 part and the Fc together; also called Siglec-7-Fc protein
T3 sequence (chain, as listed by the source limits assumed): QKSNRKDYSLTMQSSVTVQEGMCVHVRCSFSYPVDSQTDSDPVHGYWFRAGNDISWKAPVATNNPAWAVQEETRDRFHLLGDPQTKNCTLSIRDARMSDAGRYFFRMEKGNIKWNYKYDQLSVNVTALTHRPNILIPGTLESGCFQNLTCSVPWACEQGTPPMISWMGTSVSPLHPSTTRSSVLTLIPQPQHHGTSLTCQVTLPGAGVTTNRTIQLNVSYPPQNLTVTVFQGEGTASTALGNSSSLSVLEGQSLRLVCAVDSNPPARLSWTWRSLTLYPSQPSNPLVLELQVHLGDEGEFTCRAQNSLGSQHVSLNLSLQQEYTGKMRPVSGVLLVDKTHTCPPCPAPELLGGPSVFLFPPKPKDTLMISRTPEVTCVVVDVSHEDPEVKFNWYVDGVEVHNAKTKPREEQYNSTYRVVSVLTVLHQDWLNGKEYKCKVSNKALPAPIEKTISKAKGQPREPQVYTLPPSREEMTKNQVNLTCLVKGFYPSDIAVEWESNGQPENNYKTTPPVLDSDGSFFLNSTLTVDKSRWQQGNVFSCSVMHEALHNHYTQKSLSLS
Description: as §1, §2, §3

[4] = molecular target: T2, Siglec-15-Fc (R&D systems); assay: ELISA, coated Siglec-15-Fc 1 µg/ml, single antibody concentration, anti-human Fab detection, Abs 450 nm, n=3
Description: as §1, §2, §3

Row | binding result [1] | binding result [2] | binding result [3] | binding result [4] | Binder
1 | no binding (tested: 5 µg/ml) | no binding (tested: 5 µg/ml) | binds |  | monoclonal antibody 224B1 (rabbit) (antibody, V domains shown) VH: QSVEESGGRLVTPETPLTLTCTASGFSLSSYYMSWVRQAPGKGLEWIGYIWTDGSAHYATWTKGRFTISKTSSTTVDLKITSPTTEDTATYFCVRANSGSHTYIEKFNLWGPGTLVTVSS VL: DVVMTQTPASVEATVGGSVTIKCQASPSINDELSWYQQKPGQRPTLLIYEASALESGVPSRFKGSGSGTEFTLTIGDLECADAATYYCQCTYGSRSDISYGNTFGGGTEVVVKG
2 |  |  |  | no binding (tested: 5 µg/ml) | comparative monoclonal antibody mAbA (WO 2017/153433), mouse-human chimera (antibody, human IgG1, kappa, V domains shown) VH: QVQLQQPGAELVKPGSPVKLSCKASYFTFTSYWMHWVRQRPGQGLEWIGEINPSNGHTNYNEKFESKATLTVDRSSSTAYMQLSSLTSEDSAVFYCANGVESYDFDDALDYWGQGTSVTVSS VL: DIQMTQTTSSLSASLGDRVTISCRASQDINNYLNWYQQKPDGTIKLLIYYTSRLHSGVPSRFSGSGSGTDYSLTINNLEQEDIATYFCQQGNTLPFTFGGGTKLEIKR

— patent US20230009582A1 (MEMO THERAPEUTICS, published 2023)
